Measured values taken from patent US20250361268A1, “NOVEL ANTI-INFLAMMATORY PEPTIDE AND USE THEREOF” (NOVACELL TECHNOLOGY INC., priority 2022, published 2025).

T1: formyl peptide receptor 2 (FPR2) (UniProt P25090 1-351, limits assumed)
T1 sequence (looked up): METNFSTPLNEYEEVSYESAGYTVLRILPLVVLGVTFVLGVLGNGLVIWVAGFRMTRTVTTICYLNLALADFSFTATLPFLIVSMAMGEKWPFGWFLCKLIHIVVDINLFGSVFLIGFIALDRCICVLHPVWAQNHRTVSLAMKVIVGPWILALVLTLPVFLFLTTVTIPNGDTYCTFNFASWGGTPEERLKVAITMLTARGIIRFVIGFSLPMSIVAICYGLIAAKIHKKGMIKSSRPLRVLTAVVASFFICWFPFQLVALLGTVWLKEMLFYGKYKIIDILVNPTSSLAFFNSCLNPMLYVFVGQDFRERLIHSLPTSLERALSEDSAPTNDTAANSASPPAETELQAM

T2: FPR1 (UniProt P21462 1-350, limits assumed)
T2 sequence (looked up): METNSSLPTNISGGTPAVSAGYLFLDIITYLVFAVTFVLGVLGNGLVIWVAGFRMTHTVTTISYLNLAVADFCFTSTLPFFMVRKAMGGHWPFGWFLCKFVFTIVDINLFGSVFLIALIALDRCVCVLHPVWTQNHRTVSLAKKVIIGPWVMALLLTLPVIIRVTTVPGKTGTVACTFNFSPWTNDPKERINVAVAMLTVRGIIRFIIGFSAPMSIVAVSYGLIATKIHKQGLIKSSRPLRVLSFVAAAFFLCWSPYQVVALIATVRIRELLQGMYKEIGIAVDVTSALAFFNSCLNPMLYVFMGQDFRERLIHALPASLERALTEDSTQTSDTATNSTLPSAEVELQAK

B1: peptide of SEQ ID NO 143 (peptide)
peptide: IKYKPM
HELM: PEPTIDE1{[ac].I.K.Y.K.P.[dM].[am]}$$$$V2.0
SMILES: CC[C@H](C)[C@H](NC(C)=O)C(=O)N[C@@H](CCCCN)C(=O)N[C@@H](Cc1ccc(O)cc1)C(=O)N[C@@H](CCCCN)C(=O)N1CCC[C@H]1C(=O)N[C@H](CCSC)C(N)=O
B2: peptide of SEQ ID NO 133 (peptide)
peptide: IKFKPM
HELM: PEPTIDE1{I.K.F.K.P.[dM].[am]}$$$$V2.0; N-terminus assumed
SMILES: CC[C@H](C)[C@H](N)C(=O)N[C@@H](CCCCN)C(=O)N[C@@H](Cc1ccccc1)C(=O)N[C@@H](CCCCN)C(=O)N1CCC[C@H]1C(=O)N[C@H](CCSC)C(N)=O
B3: peptide of SEQ ID NO 136 (peptide)
peptide: IKYKVM
HELM: PEPTIDE1{[CCCC(=O)[*:2]].I.K.Y.K.V.[dM].[am]}$$$$V2.0
SMILES: CCCC(=O)N[C@H](C(=O)N[C@@H](CCCCN)C(=O)N[C@@H](Cc1ccc(O)cc1)C(=O)N[C@@H](CCCCN)C(=O)N[C@H](C(=O)N[C@H](CCSC)C(N)=O)C(C)C)[C@@H](C)CC
B4: peptide of SEQ ID NO 134 (peptide)
peptide: IKYKVM
HELM: PEPTIDE1{I.K.Y.K.V.[dM].[am]}$$$$V2.0; N-terminus assumed
SMILES: CC[C@H](C)[C@H](N)C(=O)N[C@@H](CCCCN)C(=O)N[C@@H](Cc1ccc(O)cc1)C(=O)N[C@@H](CCCCN)C(=O)N[C@H](C(=O)N[C@H](CCSC)C(N)=O)C(C)C
B5: peptide of SEQ ID NO 140 (peptide)
peptide: PKYKVM
HELM: PEPTIDE1{[CCCC(=O)[*:2]].P.K.Y.K.V.[dM].[am]}$$$$V2.0
SMILES: CCCC(=O)N1CCC[C@H]1C(=O)N[C@@H](CCCCN)C(=O)N[C@@H](Cc1ccc(O)cc1)C(=O)N[C@@H](CCCCN)C(=O)N[C@H](C(=O)N[C@H](CCSC)C(N)=O)C(C)C
B6: peptide of SEQ ID NO 13 (peptide)
peptide: MRYKVM
HELM: PEPTIDE1{M.R.Y.K.V.[dM].[am]}$$$$V2.0; N-terminus assumed
SMILES: CSCC[C@H](N)C(=O)N[C@@H](CCCNC(=N)N)C(=O)N[C@@H](Cc1ccc(O)cc1)C(=O)N[C@@H](CCCCN)C(=O)N[C@H](C(=O)N[C@H](CCSC)C(N)=O)C(C)C
B7: peptide of SEQ ID NO 144 (peptide)
peptide: IKYKPM
HELM: PEPTIDE1{[CCCC(=O)[*:2]].I.K.Y.K.P.[dM].[am]}$$$$V2.0
SMILES: CCCC(=O)N[C@H](C(=O)N[C@@H](CCCCN)C(=O)N[C@@H](Cc1ccc(O)cc1)C(=O)N[C@@H](CCCCN)C(=O)N1CCC[C@H]1C(=O)N[C@H](CCSC)C(N)=O)[C@@H](C)CC
B8: peptide of SEQ ID NO 11 (peptide)
peptide: KMKYKVM
HELM: PEPTIDE1{[CCCC(=O)[*:2]].K.M.K.Y.K.V.[dM].[am]}$$$$V2.0
SMILES: CCCC(=O)N[C@@H](CCCCN)C(=O)N[C@@H](CCSC)C(=O)N[C@@H](CCCCN)C(=O)N[C@@H](Cc1ccc(O)cc1)C(=O)N[C@@H](CCCCN)C(=O)N[C@H](C(=O)N[C@H](CCSC)C(N)=O)C(C)C
B9: peptide of SEQ ID NO 148 (peptide)
peptide: HKYKPM
HELM: PEPTIDE1{[CCCC(=O)[*:2]].H.K.Y.K.P.[dM].[am]}$$$$V2.0
SMILES: CCCC(=O)N[C@@H](Cc1c[nH]cn1)C(=O)N[C@@H](CCCCN)C(=O)N[C@@H](Cc1ccc(O)cc1)C(=O)N[C@@H](CCCCN)C(=O)N1CCC[C@H]1C(=O)N[C@H](CCSC)C(N)=O
B10: peptide of SEQ ID NO 146 (peptide)
peptide: HKYKPM
HELM: PEPTIDE1{H.K.Y.K.P.[dM].[am]}$$$$V2.0; N-terminus assumed
SMILES: CSCC[C@@H](NC(=O)[C@@H]1CCCN1C(=O)[C@H](CCCCN)NC(=O)[C@H](Cc1ccc(O)cc1)NC(=O)[C@H](CCCCN)NC(=O)[C@@H](N)Cc1c[nH]cn1)C(N)=O
B11: peptide of SEQ ID NO 141 (peptide)
peptide: PKYKVM
HELM: PEPTIDE1{[CCCCCCCC(=O)[*:2]].P.K.Y.K.V.[dM].[am]}$$$$V2.0
SMILES: CCCCCCCC(=O)N1CCC[C@H]1C(=O)N[C@@H](CCCCN)C(=O)N[C@@H](Cc1ccc(O)cc1)C(=O)N[C@@H](CCCCN)C(=O)N[C@H](C(=O)N[C@H](CCSC)C(N)=O)C(C)C
B12: peptide of SEQ ID NO 147 (peptide)
peptide: HKYKPM
HELM: PEPTIDE1{[ac].H.K.Y.K.P.[dM].[am]}$$$$V2.0
SMILES: CSCC[C@@H](NC(=O)[C@@H]1CCCN1C(=O)[C@H](CCCCN)NC(=O)[C@H](Cc1ccc(O)cc1)NC(=O)[C@H](CCCCN)NC(=O)[C@H](Cc1c[nH]cn1)NC(C)=O)C(N)=O
B13: peptide of SEQ ID NO 138 (peptide)
peptide: PKYKVM
HELM: PEPTIDE1{P.K.Y.K.V.[dM].[am]}$$$$V2.0; N-terminus assumed
SMILES: CSCC[C@@H](NC(=O)[C@@H](NC(=O)[C@H](CCCCN)NC(=O)[C@H](Cc1ccc(O)cc1)NC(=O)[C@H](CCCCN)NC(=O)[C@@H]1CCCN1)C(C)C)C(N)=O
B14: peptide of SEQ ID NO 123 (peptide)
peptide: RWRYYYM
HELM: PEPTIDE1{R.W.R.Y.Y.Y.[dM].[am]}$$$$V2.0; N-terminus assumed
SMILES: CSCC[C@@H](NC(=O)[C@H](Cc1ccc(O)cc1)NC(=O)[C@H](Cc1ccc(O)cc1)NC(=O)[C@H](Cc1ccc(O)cc1)NC(=O)[C@H](CCCNC(=N)N)NC(=O)[C@H](Cc1c[nH]c2ccccc12)NC(=O)[C@@H](N)CCCNC(=N)N)C(N)=O
B15: peptide of SEQ ID NO 139 (peptide)
peptide: PKYKVM
HELM: PEPTIDE1{[ac].P.K.Y.K.V.[dM].[am]}$$$$V2.0
SMILES: CSCC[C@@H](NC(=O)[C@@H](NC(=O)[C@H](CCCCN)NC(=O)[C@H](Cc1ccc(O)cc1)NC(=O)[C@H](CCCCN)NC(=O)[C@@H]1CCCN1C(C)=O)C(C)C)C(N)=O
B16: peptide of SEQ ID NO 15 (peptide)
peptide: MRYKVM
HELM: PEPTIDE1{[CCCC(=O)[*:2]].M.R.Y.K.V.[dM].[am]}$$$$V2.0
SMILES: CCCC(=O)N[C@@H](CCSC)C(=O)N[C@@H](CCCNC(=N)N)C(=O)N[C@@H](Cc1ccc(O)cc1)C(=O)N[C@@H](CCCCN)C(=O)N[C@H](C(=O)N[C@H](CCSC)C(N)=O)C(C)C
B17: peptide of SEQ ID NO 135 (peptide)
peptide: IKYKVM
HELM: PEPTIDE1{[ac].I.K.Y.K.V.[dM].[am]}$$$$V2.0
SMILES: CC[C@H](C)[C@H](NC(C)=O)C(=O)N[C@@H](CCCCN)C(=O)N[C@@H](Cc1ccc(O)cc1)C(=O)N[C@@H](CCCCN)C(=O)N[C@H](C(=O)N[C@H](CCSC)C(N)=O)C(C)C
B18: peptide of SEQ ID NO 125 (peptide)
peptide: RMRYYYM
HELM: PEPTIDE1{[ac].R.M.R.Y.Y.Y.[dM].[am]}$$$$V2.0
SMILES: CSCC[C@H](NC(=O)[C@H](CCCNC(=N)N)NC(C)=O)C(=O)N[C@@H](CCCNC(=N)N)C(=O)N[C@@H](Cc1ccc(O)cc1)C(=O)N[C@@H](Cc1ccc(O)cc1)C(=O)N[C@@H](Cc1ccc(O)cc1)C(=O)N[C@H](CCSC)C(N)=O
B19: peptide of SEQ ID NO 127 (peptide)
peptide: HMKYYYM
HELM: PEPTIDE1{[CCCC(=O)[*:2]].H.M.K.Y.Y.Y.[dM].[am]}$$$$V2.0
SMILES: CCCC(=O)N[C@@H](Cc1c[nH]cn1)C(=O)N[C@@H](CCSC)C(=O)N[C@@H](CCCCN)C(=O)N[C@@H](Cc1ccc(O)cc1)C(=O)N[C@@H](Cc1ccc(O)cc1)C(=O)N[C@@H](Cc1ccc(O)cc1)C(=O)N[C@H](CCSC)C(N)=O
B20: peptide of SEQ ID NO 142 (peptide)
peptide: IKYKPM
HELM: PEPTIDE1{I.K.Y.K.P.[dM].[am]}$$$$V2.0; N-terminus assumed
SMILES: CC[C@H](C)[C@H](N)C(=O)N[C@@H](CCCCN)C(=O)N[C@@H](Cc1ccc(O)cc1)C(=O)N[C@@H](CCCCN)C(=O)N1CCC[C@H]1C(=O)N[C@H](CCSC)C(N)=O

What follows are binders tested against T1, formyl peptide receptor 2 (FPR2) (assay: cell-based or functional assay).

Row | EC50 for [Ca2+] [µM] | Binder
1 | < 0.01 | B1
2 | < 0.01 | B2
3 | < 0.01 | B3
4 | < 0.01 | B4
5 | < 0.01 | B5
6 | < 0.01 | B6
7 | < 0.01 | B7
8 | < 0.01 | B8
9 | < 0.01 | B9
10 | < 0.01 | B10
11 | < 0.01 | B11
12 | < 0.01 | B12
13 | < 0.01 | B13
14 | < 0.01 | B14
15 | < 0.01 | B15
16 | < 0.01 | B16
17 | < 0.01 | B17
18 | < 0.01 | B18
19 | < 0.01 | B19
20 | < 0.01 | B20

What follows are binders tested against T2, FPR1 (assay: cell-based or functional assay).

Row | EC50 for [Ca2+] [µM] | Binder
21 | > 10 | B1
22 | > 10 | B2
23 | > 10 | B3
24 | > 10 | B4
25 | > 10 | B5
26 | > 10 | B6
27 | > 10 | B7
28 | > 10 | B8
29 | > 10 | B9
30 | > 10 | B10
31 | > 10 | B11
32 | > 10 | B12
33 | > 10 | B13
34 | > 10 | B14
35 | > 10 | B15
36 | > 10 | B16
37 | > 10 | B17
38 | > 10 | B18
39 | > 10 | B19
40 | > 10 | B20
